B1: C567 (antibody, V domains shown)
VH: QVQLQESGPGLVKPSETLSLTCTVSGGSVINGSYYWSWIRQPPGKGLEWIGFVYYSGSTNYNPSLKSRVTISVDTSKNQFSLNLNSVTAADTAVYYCATGSKSSYYFDYWGQGTLVTVSS
VL: QSVLTQPPSVSAAPGQKVTISCSGSSSNIGNNYVSWYQQLPGAAPKLLIYENNMRPSGIPDRFSGSKSGTSATLGITGLQTGDEADYYCGTWDSSLSVPYVFGTGTRVTVL
B2: C565 (antibody, V domains shown)
VH: EVQLVESGGGLIQPGGSLRLSCAASGLIVSSNYMNWVRQAPGKGLEWVSLLYSGGSTYYADSVKGRFTISRDNSKNTLYLQMNSLRPEDTAVYYCARDLSVVGAFDIWGQGTMVTVSS
VL: EIVLTQSPGTLSLSPGERATLSCRASQSLPSTYLAWYQQKRGQAPRLLIYGASSRATGIPDRFSGSGSGTDFTLTISRLEPEDFAVYYCQQYGTSPRVTFGPGTKVDIK
B3: C569 (antibody, V domains shown)
VH: QVQLVESGGNVVQPGRSLRLSCAASGFTFSNYGMHWIRQAPGKGLEWVAVISYDGSDKYYADSVKGRVTISRDNSKNTLYLQMNSLRAEDTAVYYCAKGGPYGDHVRSDYWGLGTLVTVSS
VL: DIQMTQSPSSLSASVGDRVTITCQASQDISNYLNWYQQKPGKVPKLLIYDASNLETGVPSRFSGSGSGTDFTFTISSLQPEDIATYYCQQFHNLPLTFGQGTKLEIK
B4: C568 (antibody, V domains shown)
VH: QVQLVQSGAEVKKPGASVKVSCTASGYTFSSYYIHWVRQAPGQGLEWMGIINPGAGSTSYAQKFQGRVAMTTDTSTRTVYMELSSLRSDDTAVYYCARDEAFLPSAIFVGDYWGQGTLVTVSS
VL: DIQMTQSPSSLSASVGDRVTITCRASQGIRNDLGWYQQKPGKAPKRLIYAASNLQSGVPSRFSGSGSGTEFTLTISSLQPEDFATYYCLQHSTYPHTWTFGQGTKVEIK
B5: C709 (antibody, V domains shown)
VH: QVQLVQSGAEVRKPGASVKVSCMASGYTFNTYDINWVRQGTGQGLEWMGWMNPNSGNTGHAQKFQGRVAMTVNTSMNTAYMELSSLRSEDTAVYYCARGADMLNVAVGADFDYWGQGTLVTVSS
VL: QSALTQPPSASGSPGQSVTISCTGTSSDVGGYNFVSWFQQHPGKAPKLMIYEVSKRPSGVPDRFSGSKSANTASLTVSGLQAEDEADYFCSSYAGSNNWVFGGGTKLTVL
B6: C570 (antibody, V domains shown)
VH: QVQLQESGPGLVKPSETLSLTCTVSGASISSYYWSWIRQPPGKGLEWIGYIYYSGSTNYNPSLKSRVTISLDTSKNQFSLQLSSVTAADTAVYYCATYYFDNSGYSYGLDVWGQGTTVTVSS
VL: DIQMTQSPSSLSASVGDRVTIACRASQSISSYLHWYQQQPGKAPKLLIYAVTNLQSGVPSRFSGSGSGTDFTLTISSLQPEDFATYYCQQSYSLPQTFGQGTKVEIK
B7: C571 (antibody, V domains shown)
VH: EVQLVESGGGLIQPGGSLKLSCVVSGFTVSRNYISWVRQAPGKGLEWVSVLFAGGSTFYADSVKGRFAISRDNSNNTLFLQMNSLRVEDTAIYYCARGDGELIFDQWGQGTLVTVSS
VL: QSVLTQPPSVSGAPGQRVTIVCTGTSSNIGAGYDVHWYQQLPGRAPKVLVSGNNIRPSEVPDRFSGSRSGTSASLAITSLQPEDEAQYYCQSYDSNLYAVFGGGTKLTVL
B8: C566 (antibody, V domains shown)
VH: QVQLQESGPGLVKSSQTLSLNCSVFGASISSGGYYWTWIRQHPGKGLEWIGYIHYRGTYYNPSLKSRVTMSVDTSKNQFSLKVRSVSAADTAIYYCARAIVVVTLNWFDLWGQGTLVTVSS
VL: NFMLTQPHSVSESPGKTVTISCSGSGGSIASNYVQWYQQRPGSAPTAVIYEDNQRPSGVPDRFSGSIDSSSNSASLTISGLKTEDEADYYCQSYDTSNPVIFGGGTKLTV

This assay addresses SARS-CoV-2 spike protein receptor binding domain (RBD) (SARS-CoV-2, UniProt P0DTC2 319-539). Nature of the assay: ELISA on plate-coated RBD.
One may read the EC50 as the concentration that produces a half-maximal response. B1: it took 18.9 ng/mL to reach a half-maximal effect (EC50).

As to B2, the EC50 turned out to be 1.27 ng/mL.

For the molecule B3, the EC50 is 11.1 ng/mL.

In turn, B4 had an EC50 of 5.99 ng/mL.

B5 gave an EC50 of 7.56 ng/mL.

Molecule B6 registered an EC50 of 0.74 ng/mL.

Take B7: the EC50 came to 4.63 ng/mL.

B8 registered an EC50 of 5.88 ng/mL.

Values taken from US20220195015A1 (published 2022).
